In US20090298197, “SERS-BASED METHODS FOR DETECTION OF BIOAGENTS” (OXONICA MATERIALS INC., published 2009):

Key:
[1] = target: T1, alpha-thrombin (UniProt P00734;P00734 P00734:328-363,P00734:364-622); assay: fluorescence restored on nanowire beacon with 10 ug/ml thrombin (form not specified), Tris-HCl, 30 min, room temperature
[2] = target: ovalbumin (UniProt P01012 P01012:2-386); assay: negative control, little signal; nanowire fluorescence beacon; conditions: label: TAMRA 3'; no hairpin
Procedure: Probe assembly was performed as for standard molecular beacons. The assay was performed by diluted the thrombin protein with Tris-HCl buffer to attain desired concentration. Then 50 μl thrombin protein solution was mixed with 3 μl nanowire assembled aptamer probe in a microfuge tube and incubated for 30 min, with rotation at room temperature. The contents were centrifuged, washed with 0.1% Tween-20/PBS once and fluorescence images acquired using fluorescence microscope described above.
As expected no fluorescence was observed, due to the fluorescence quenching of the TAMRA by the nanowire. However, when the thrombin protein was added to the reaction by incubating 10 μg/ml thrombin with 3 μl nanowire-Apt1 assembled probes for 30 min, fluorescence was restored. An investigation into the effect of the hairpin in the beacons was carried out. […] This sequence was therefore used for subsequent experiments. […] When this experiment was repeated in 50% serum, the detection limit was again approximately 50 nM (FIG. 15B). These are very encouraging results. Finally, it is important to understand the specificity of the assay, in addition to the sensitivity. THR Apt 3 assembled nanowires were incubated with a pair of homologous proteins, α Thrombin and β Thrombin, and with ovalbumin as a negative control, and a blank (labeled control). […]

[3] = target: T1, alpha-thrombin; assay: nanowire fluorescence beacon; highest signal to noise; thrombin detected at about 50 nM in buffer and in 50% serum (detection limit, not Kd); greatest signal wi

ovalbumin, sequence (P01012 2-386, one chain of several): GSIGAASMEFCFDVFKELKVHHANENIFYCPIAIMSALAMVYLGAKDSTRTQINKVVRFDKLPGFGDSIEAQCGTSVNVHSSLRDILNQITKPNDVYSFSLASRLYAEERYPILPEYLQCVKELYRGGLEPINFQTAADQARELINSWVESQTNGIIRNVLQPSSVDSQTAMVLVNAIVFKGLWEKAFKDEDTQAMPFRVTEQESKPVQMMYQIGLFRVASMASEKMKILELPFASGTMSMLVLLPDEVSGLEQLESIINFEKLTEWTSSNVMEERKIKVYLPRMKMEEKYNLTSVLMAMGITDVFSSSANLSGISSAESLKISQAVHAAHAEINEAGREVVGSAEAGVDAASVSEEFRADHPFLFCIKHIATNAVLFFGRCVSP

| Binder | binding result [1] | binding result [2] | binding result [3] |
| --- | --- | --- | --- |
| CCAACGGTTGGTGTGGTTGG (ssDNA, 5' thiol-(CH2)6, 3' (CH2)7-TAMRA, assembled on Au/Ag nanowires) [THR Apt1] | binds | – | – |
| TGGTTGGTGTGGTTGG (ssDNA, 5' thiol-(CH2)6, 3' (CH2)7-TAMRA, assembled on Au/Ag nanowires) [THR Apt3] | – | no binding | binds |
